In paper PMC11649783, “Structural basis of 3′-tRNA maturation by the human mitochondrial RNase Z complex” (The EMBO Journal, 2024):

Molecular target: T1, SDR5C1 (human, UniProt Q99714 1-261)
T1 construct: expression construct as previously described (Reinhard et al, 2017); The subcomplex was purified by Ni2+ IMAC and treated with TEV protease; also called 4xSDR5C1
T1 sequence: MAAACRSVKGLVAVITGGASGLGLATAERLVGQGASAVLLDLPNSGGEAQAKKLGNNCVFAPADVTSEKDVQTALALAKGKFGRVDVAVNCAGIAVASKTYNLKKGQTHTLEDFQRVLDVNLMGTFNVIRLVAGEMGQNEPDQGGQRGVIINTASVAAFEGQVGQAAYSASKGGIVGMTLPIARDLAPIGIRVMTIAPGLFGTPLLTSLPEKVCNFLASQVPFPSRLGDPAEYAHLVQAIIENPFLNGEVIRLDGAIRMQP
Test: cryo-EM structure; RNase Z-HS product complex: assembled at 4 °C from 10 μM TRMT10C/SDR5C1, 20 μM ELAC2 and 20 μM mt-tRNA^His-Ser(AGY) precursor with 200 μM SAM in buffer D (20 mM HEPES 7.5, 50 mM NaCl, 1 mM MgCl2, 1 mM DTT), S200 size exclusion, incubated to complete turnover; 2.9 Å
Conditions: both partners purified

stoichiometry N: 2 mt-tRNA/TRMT10C per SDR5C1 tetramer
B1: TRMT10C (enzyme, human, UniProt Q7L0Y3 40-403, looked up)
chain: MSSKIPAVTYPKNESTPPSEELELDKWKTTMKSSVQEECVSTISSSKDEDPLAATREFIEMWRLLGREVPEHITEEELKTLMECVSNTAKKKYLKYLYTKEKVKKARQIKKEMKAAAREEAKNIKLLETTEEDKQKNFLFLRLWDRNMDIAMGWKGAQAMQFGQPLVFDMAYENYMKRKELQNTVSQLLESEGWNRRNVDPFHIYFCNLKIDGALHRELVKRYQEKWDKLLLTSTEKSHVDLFPKDSIIYLTADSPNVMTTFRHDKVYVIGSFVDKSMQPGTSLAKAKRLNLATECLPLDKYLQWEIGNKNLTLDQMIRILLCLKNNGNWQEALQFVPKRKHTGFLEISQHSQEFINRLKKAKT
notes: TRMT10C, human; expression construct as previously described (Reinhard et al, 2017); The subcomplex was purified by Ni2+ IMAC and treated with TEV protease
